This passage reports Tm results from the array DNA melting data of Ke et al..

In general, Tm refers to the temperature at which the thermal transition is half complete.

The nature of the data set: melting temperature; melt of duplexes. As to conditions: sodium 0.0675 M; strand 1 µM.
For “CGACGTGCCTTATGTGCTG+CAGCACATAGCGCACGTCG ((((((((..(((((((((+)))))))))..))))))))”, the Tm worked out at 50.4 °C.
With “CGACGTGCTTTATGTGCTG+CAGCACATATCGCACGTCG ((((((((..(((((((((+)))))))))..))))))))” the figure was 49.1 °C.
For the substance “CGACGTGCTGGATGTGCTG+CAGCACATCTGGCACGTCG ((((((((..(((((((((+)))))))))..))))))))”, the Tm worked out at 58.3 °C.
With “CGACGTGCGGTATGTGCTG+CAGCACATAGTGCACGTCG ((((((((..(((((((((+)))))))))..))))))))” the figure was 53 °C; with “CGACGTGCCCAATGTGCTG+CAGCACATAAAGCACGTCG ((((((((...((((((((+))))))))...))))))))”, 50.1 °C.
Consider “CGACGTGCAGGATGTGCTG+CAGCACATTCGGCACGTCG ((((((((.(.((((((((+)))))))).).))))))))”, for which the Tm is 56.2 °C.
Consider “CGACGTGCACAATGTGCTG+CAGCACATCGCGCACGTCG ((((((((.(.((((((((+)))))))).).))))))))”, for which the Tm amounted to 48.5 °C.
With “CGACGTGCTTGATGTGCTG+CAGCACATTTAGCACGTCG (((((((((..((((((((+))))))))..)))))))))”, the Tm amounted to 52.5 °C.
Turning to “CGACGTGCCTCATGTGCTG+CAGCACATGCAGCACGTCG ((((((((..(((((((((+)))))))))..))))))))”, the Tm is 52.8 °C.
Turning to “CGACGTGCTGTATGTGCTG+CAGCACATAGTGCACGTCG ((((((((..(((((((((+)))))))))..))))))))”, the Tm was determined as 48 °C.
With “CGACGTGCTCTATGTGCTG+CAGCACATGCGGCACGTCG ((((((((...((((((((+))))))))...))))))))” the figure was 48.5 °C.
With “CGACGTGCGACATGTGCTG+CAGCACATGAGGCACGTCG ((((((((..(((((((((+)))))))))..))))))))” the figure was 55.3 °C; with “CGACGTGCTGAATGTGCTG+CAGCACATGTAGCACGTCG (((((((((..((((((((+))))))))..)))))))))”, 54.3 °C; with “CGACGTGCGTTATGTGCTG+CAGCACATGATGCACGTCG ((((((((.(.((((((((+)))))))).).))))))))”, 54.6 °C.
For the substance “CGACGTGCCATATGTGCTG+CAGCACATACCGCACGTCG ((((((((..(((((((((+)))))))))..))))))))”, the Tm stood at 48.3 °C.
“CGACGTGCAGAATGTGCTG+CAGCACATAAGGCACGTCG ((((((((...((((((((+))))))))...))))))))”: the Tm came out at 51 °C.
Then “CGACGTGCGAAATGTGCTG+CAGCACATTTCGCACGTCG (((((((((((((((((((+)))))))))))))))))))”, with 64.7 °C; and “CGACGTGCTATATGTGCTG+CAGCACATCATGCACGTCG ((((((((...((((((((+))))))))...))))))))”, with 50.2 °C.
Then “CGACGTGCACCATGTGCTG+CAGCACATGTAGCACGTCG ((((((((..(((((((((+)))))))))..))))))))”, with 50.9 °C; and “CGACGTGCCGTATGTGCTG+CAGCACATAGTGCACGTCG ((((((((..(((((((((+)))))))))..))))))))”, with 49.5 °C.
Then “CGACGTGCCCCATGTGCTG+CAGCACATCTTGCACGTCG ((((((((...((((((((+))))))))...))))))))”, with 46.7 °C; and “CGACGTGCCGAATGTGCTG+CAGCACATTGGGCACGTCG (((((((((.(((((((((+))))))))).)))))))))”, with 59 °C; and “CGACGTGCATAATGTGCTG+CAGCACATCGCGCACGTCG ((((((((...((((((((+))))))))...))))))))”, with 46.9 °C.
Turning to “CGACGTGCACCATGTGCTG+CAGCACATCCTGCACGTCG (((((((((..((((((((+))))))))..)))))))))”, the Tm worked out at 44.7 °C.
“CGACGTGCTCGATGTGCTG+CAGCACATAAAGCACGTCG (((((((((..((((((((+))))))))..)))))))))”: the Tm was 52.7 °C.
As to “CGACGTGCGGCATGTGCTG+CAGCACATGCGGCACGTCG ((((((((.((((((((((+)))))))))).))))))))”, the Tm was 61.7 °C.
With “CGACGTGCCGAATGTGCTG+CAGCACATCTAGCACGTCG ((((((((...((((((((+))))))))...))))))))” the figure was 50.1 °C; with “CGACGTGCCGCATGTGCTG+CAGCACATTGGGCACGTCG (((((((((..((((((((+))))))))..)))))))))”, 54.4 °C; with “CGACGTGCGAAATGTGCTG+CAGCACATAGTGCACGTCG ((((((((...((((((((+))))))))...))))))))”, 46 °C.
For “CGACGTGCAGTATGTGCTG+CAGCACATCGTGCACGTCG (((((((((..((((((((+))))))))..)))))))))”, the Tm is 48.2 °C.
“CGACGTGCGCTATGTGCTG+CAGCACATGTCGCACGTCG (((((((((..((((((((+))))))))..)))))))))”: the Tm was found to be 54.8 °C.
Regarding “CGACGTGCGGCATGTGCTG+CAGCACATAGTGCACGTCG ((((((((...((((((((+))))))))...))))))))”, the Tm turned out to be 45.9 °C.
Then “CGACGTGCTCAATGTGCTG+CAGCACATATCGCACGTCG ((((((((...((((((((+))))))))...))))))))”, with 47.5 °C; and “CGACGTGCTGTATGTGCTG+CAGCACATGACGCACGTCG ((((((((...((((((((+))))))))...))))))))”, with 47.9 °C.
Then “CGACGTGCAATATGTGCTG+CAGCACATTATGCACGTCG (((((((((..((((((((+))))))))..)))))))))”, with 52.1 °C; and “CGACGTGCCAGATGTGCTG+CAGCACATCTAGCACGTCG ((((((((.((((((((((+)))))))))).))))))))”, with 56.8 °C; and “CGACGTGCTGTATGTGCTG+CAGCACATGTTGCACGTCG ((((((((...((((((((+))))))))...))))))))”, with 50.4 °C.
Then “CGACGTGCTCAATGTGCTG+CAGCACATACGGCACGTCG ((((((((...((((((((+))))))))...))))))))”, with 48.1 °C.
For the substance “CGACGTGCTTTATGTGCTG+CAGCACATCGAGCACGTCG (((((((((..((((((((+))))))))..)))))))))”, the Tm was 51.3 °C.
For the substance “CGACGTGCACGATGTGCTG+CAGCACATGCCGCACGTCG ((((((((...((((((((+))))))))...))))))))”, the Tm stood at 44.4 °C.
Take “CGACGTGCCGTATGTGCTG+CAGCACATCCTGCACGTCG ((((((((.(.((((((((+)))))))).).))))))))”: the Tm was determined as 49.7 °C.
With “CGACGTGCTTAATGTGCTG+CAGCACATAAAGCACGTCG ((((((((((.((((((((+)))))))).))))))))))” the figure was 56.2 °C; with “CGACGTGCGGTATGTGCTG+CAGCACATTGGGCACGTCG ((((((((...((((((((+))))))))...))))))))”, 49.8 °C.
As to “CGACGTGCTCAATGTGCTG+CAGCACATCTAGCACGTCG (((((((((..((((((((+))))))))..)))))))))”, the Tm was 51 °C.
With “CGACGTGCGTAATGTGCTG+CAGCACATAGAGCACGTCG ((((((((...((((((((+))))))))...))))))))” the figure was 54.4 °C; with “CGACGTGCCCAATGTGCTG+CAGCACATAACGCACGTCG ((((((((...((((((((+))))))))...))))))))”, 47.3 °C; with “CGACGTGCGCTATGTGCTG+CAGCACATCGGGCACGTCG ((((((((.(.((((((((+)))))))).).))))))))”, 52 °C.
With “CGACGTGCCTAATGTGCTG+CAGCACATGGGGCACGTCG (((((((((..((((((((+))))))))..)))))))))” the figure was 56 °C; with “CGACGTGCGTTATGTGCTG+CAGCACATATAGCACGTCG ((((((((..(((((((((+)))))))))..))))))))”, 54.5 °C; with “CGACGTGCGTAATGTGCTG+CAGCACATTAAGCACGTCG ((((((((.((((((((((+)))))))))).))))))))”, 56.9 °C.
Then “CGACGTGCCAAATGTGCTG+CAGCACATCGAGCACGTCG ((((((((...((((((((+))))))))...))))))))”, with 49.6 °C; and “CGACGTGCTAGATGTGCTG+CAGCACATGGGGCACGTCG ((((((((...((((((((+))))))))...))))))))”, with 51 °C.
Turning to “CGACGTGCTCTATGTGCTG+CAGCACATTAAGCACGTCG (((((((((..((((((((+))))))))..)))))))))”, the Tm was 51.1 °C.
Turning to “CGACGTGCTTCATGTGCTG+CAGCACATGACGCACGTCG ((((((((.((((((((((+)))))))))).))))))))”, the Tm amounted to 55.1 °C.
“CGACGTGCCATATGTGCTG+CAGCACATGCGGCACGTCG (((((((((..((((((((+))))))))..)))))))))”: the Tm was found to be 54.1 °C.
In the case of “CGACGTGCAGAATGTGCTG+CAGCACATGGTGCACGTCG (((((((((..((((((((+))))))))..)))))))))”, the Tm was 52.6 °C.
Consider “CGACGTGCTTGATGTGCTG+CAGCACATTTGGCACGTCG ((((((((...((((((((+))))))))...))))))))”, for which the Tm is 50.8 °C.
With “CGACGTGCTGCATGTGCTG+CAGCACATGTTGCACGTCG ((((((((..(((((((((+)))))))))..))))))))” the figure was 56.4 °C; with “CGACGTGCGTAATGTGCTG+CAGCACATGTAGCACGTCG ((((((((...((((((((+))))))))...))))))))”, 58.1 °C; with “CGACGTGCTGAATGTGCTG+CAGCACATCCCGCACGTCG ((((((((.(.((((((((+)))))))).).))))))))”, 51 °C.
Take “CGACGTGCCGGATGTGCTG+CAGCACATCCGGCACGTCG (((((((((((((((((((+)))))))))))))))))))”: the Tm was determined as 68.2 °C.
Then “CGACGTGCTGGATGTGCTG+CAGCACATACAGCACGTCG ((((((((((.((((((((+)))))))).))))))))))”, with 61.4 °C; and “CGACGTGCTTTATGTGCTG+CAGCACATGCTGCACGTCG ((((((((...((((((((+))))))))...))))))))”, with 46.2 °C.
In the case of “CGACGTGCTGAATGTGCTG+CAGCACATCGTGCACGTCG ((((((((...((((((((+))))))))...))))))))”, the Tm worked out at 46.3 °C.
Regarding “CGACGTGCAGGATGTGCTG+CAGCACATCTGGCACGTCG ((((((((..(((((((((+)))))))))..))))))))”, the Tm was 57.1 °C.
With “CGACGTGCGTGATGTGCTG+CAGCACATAAGGCACGTCG ((((((((.(.((((((((+)))))))).).))))))))” the figure was 52.7 °C.
